Source: patent publication US20230287081A1 (published 2023)
Like-named read-outs stand apart in the source and are kept apart here. One block for each binder: values may come before it.

Tests used:
Experiment in all cases: ELISA
[1] = molecular target: T1, hPD-L1-hIGg1Fc (SinoBiological) (human, UniProt Q9NZQ7 19-238)
[2] = molecular target: T1, hPD-L1-hIGg1Fc (SinoBiological); remark: listed apart in the source
[3] = molecular target: T1, hPD-L1-hIGg1Fc (SinoBiological); remark: listed apart in the source
[4] = molecular target: T1, hPD-L1-hIGg1Fc (SinoBiological); remark: listed apart in the source

T1 sequence (Q9NZQ7 19-238): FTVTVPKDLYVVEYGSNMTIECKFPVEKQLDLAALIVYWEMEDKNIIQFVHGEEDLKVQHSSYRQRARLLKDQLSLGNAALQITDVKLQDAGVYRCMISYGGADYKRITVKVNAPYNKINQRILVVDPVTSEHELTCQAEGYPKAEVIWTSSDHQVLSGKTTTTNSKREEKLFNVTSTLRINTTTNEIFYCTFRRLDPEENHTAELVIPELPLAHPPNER

EC50 [1]: 68 pM
EC50 [2]: 68 pM
B1: aPD-L1 (antibody, V domains shown)
VH: EVQLLESGGGLVQPGGSLSLSCAASGFSFSSGYDMCWVRQAPGKGLEWIACIAAGSAGITYDANWAKGRFTISRDNSKNTLYLQMNSLRAEDTAVYYCARSAFSFDYAMDLWGQGTLVTVSS
VL: DIQMTQSPSTLSASVGDRVTITCQASQSISSHLNWYQQKPGKAPKLLIYKASTLASGVPSRFSGSGSGTEFTLTISSLQPDDFATYYCQQGYSWGNVDNVFGGGTKVTVL

EC50 [3]: 25.8 pM
B2: PD-1m-aGPC-3L (bispecific antibody)
heavy: QVQLVQSGAEVKKPGASVKVSCKASGYTFTDYEMHWVRQAPGQGLEWMGALDPKTGDTAYSQKFKGRVTLTADKSTSTAYMELSSLTSEDTAVYYCTRFYSYTYWGQGTLVTVSSASTKGPSVFPLAPSSKSTSGGTAALGCLVKDYFPEPVTVSWNSGALTSGVHTFPAVLQSSGLYSLSSVVTVPSSSLGTQTYICNVNHKPSNTKVDKKVEPKSCDKTHTCPPCPAPPVAGPSVFLFPPKPKDTLMISRTPEVTCVVVDVSHEDPEVKFNWYVDGVEVHNAKTKPREEQYNSTYRVVSVLTVLHQDWLNGKEYKCKVSNKGLPSSIEKTISKAKGQPREPQVYTLPPSRDELTKNQVSLTCLVKGFYPSDIAVEWESNGQPENNYKTTPPVLDSDGSFFLYSKLTVDKSRWQQGNVFSCSVMHEALHNHYTQKSLSLSPGK
light: LDSPDRPWNPPTFSPALLVVTEGDNATFTCSFSNTSESFVLNWYRMSPSNQTDKLAAFPEDRSQPGQDSRFRVTQLPNGRDFHMSVVRARRNDSGTYLCGAISLAPKVQIKESLRAELRVTERRAEVPTAHPSPSPRPAGQFQGGGGSGGGGSGGGGSGDVVMTQSPLSLPVTPGEPASISCRSSQSLVHSNRNTYLHWYLQKPGQSPQLLIYKVSNRFSGVPDRFSGSGSGTDFTLKISRVEAEDVGVYYCSQNTHVPPTFGQGTKLEIKRTVAAPSVFIFPPSDEQLKSGTASVVCLLNNFYPREAKVQWKVDNALQSGNSQESVTEQDSKDSTYSLSSTLTLSKADYEKHKVYACEVTHQGLSSPVTKSFNRGEC

EC50 [4]: 39.4 pM
B3: PD-1m-aEGFRL (bispecific antibody)
heavy: QVQLQESGPGLVKPSETLSLTCTVSGGSVSSGDYYWTWIRQSPGKGLEWIGHIYYSGNTNYNPSLKSRLTISIDTSKTQFSLKLSSVTAADTAIYYCVRDRVTGAFDIWGQGTMVTVSSASTKGPSVFPLAPSSKSTSGGTAALGCLVKDYFPEPVTVSWNSGALTSGVHTFPAVLQSSGLYSLSSVVTVPSSSLGTQTYICNVNHKPSNTKVDKKVEPKSCDKTHTCPPCPAPPVAGPSVFLFPPKPKDTLMISRTPEVTCVVVDVSHEDPEVKFNWYVDGVEVHNAKTKPREEQYNSTYRVVSVLTVLHQDWLNGKEYKCKVSNKGLPSSIEKTISKAKGQPREPQVYTLPPSRDELTKNQVSLTCLVKGFYPSDIAVEWESNGQPENNYKTTPPVLDSDGSFFLYSKLTVDKSRWQQGNVFSCSVMHEALHNHYTQKSLSLSPGK
light: not shown

EC50 [4]: 1540 pM
B4: PD-1-aEGFRL (bispecific antibody)
heavy: QVQLQESGPGLVKPSETLSLTCTVSGGSVSSGDYYWTWIRQSPGKGLEWIGHIYYSGNTNYNPSLKSRLTISIDTSKTQFSLKLSSVTAADTAIYYCVRDRVTGAFDIWGQGTMVTVSSASTKGPSVFPLAPSSKSTSGGTAALGCLVKDYFPEPVTVSWNSGALTSGVHTFPAVLQSSGLYSLSSVVTVPSSSLGTQTYICNVNHKPSNTKVDKKVEPKSCDKTHTCPPCPAPPVAGPSVFLFPPKPKDTLMISRTPEVTCVVVDVSHEDPEVKFNWYVDGVEVHNAKTKPREEQYNSTYRVVSVLTVLHQDWLNGKEYKCKVSNKGLPSSIEKTISKAKGQPREPQVYTLPPSRDELTKNQVSLTCLVKGFYPSDIAVEWESNGQPENNYKTTPPVLDSDGSFFLYSKLTVDKSRWQQGNVFSCSVMHEALHNHYTQKSLSLSPGK
light: not shown
